Experimental data reported in publication PMC12658005 (Communications Biology, 2025).

Molecular target: the molecule itself
Test: cryo-EM structure

B1: F plasmid TraT protein complex (TraT-TS) (natural protein)
chain: CGAMSTAIKKRNLEVKTQMSETIWLEPASERTVFLQIKNTSDKDMSGLQGKIADAVKAKGYQVVTSPDKAYYWIQANVLKADKMDLRESQGWLNRGYEGAAVGAALGAGITGYNSNSAGATLGVGLAAGLVGMAADAMVEDVNYTMITDVQIAERTKATVTTDNVAALRQGTSGAKIQTSTETGNQHKYQTRVVSNANKVNLKFEEAKPVLEDQLAKSIANIL
modifications: lipid anchor on the N-terminal cysteine (density not resolved)
notes: also called TraTF; TraT exclusion protein complex; copies: 10
Q: With B1 as the protein, how does the “stoichiometry N” value read?
A: 10
